From patent US20260042847A1, “CYSTEINE ENGINEERED ANTIBODY CONSTRUCTS, CONJUGATES AND METHODS OF USE” (ZYMEWORKS INC., priority 2021, published 2026)

Tested on: mid c-Met expressing colorectal cancer xenograft model HT-29
Test: In vivo anti-tumor activity, HT-29 xenograft
Parameters: species or system balb/c nude mice
Details: single IV dose, toxin-matched 6 (DAR1), 3 (DAR2), 2 (DAR3), 1.5 (DAR4) mg/kg, FIG. 7A
Procedure: For the HT-29 model, tumor cell suspensions (3×10^6 cells in 0.1 ml PBS) were implanted subcutaneously into balb/c nude mice. When mean tumor volume reached ˜160 mm3, the animals were randomly assigned to groups (n=8 per group) and treated with a single IV dose of test articles as shown in Table 14.1. Dose levels of ADCs at different DARs were molar matched to toxin. Tumor volume and body weight were measured twice weekly with a study duration of 32 days.

B1: v17427-MCvcPABC-MMAE (conjugate, chains of the INN, looked up)
VH: QVQLVQSGAEVKKPGASVKVSCKASGYIFTAYTMHWVRQAPGQGLEWMGWIKPNNGLANYAQKFQGRVTMTRDTSISTAYMELSRLRSDDTAVYYCARSEITTEFDYWGQGTLVTVSS
VL: DIVMTQSPDSLAVSLGERATINCKSSESVDSYANSFLHWYQQKPGQPPKLLIYRASTRESGVPDRFSGSGSGTDFTLTISSLQAEDVAVYYCQQSKEDPLTFGGGTKVEIK
modifications: IgG, HetFc MC-vc-PABC-MMAE
tumor growth inhibition compared to vehicle: did not significantly inhibit tumor growth
